Results taken from doi:10.1101/2025.05.23.655736 (bioRxiv, 2025).

Target: T1, CHAP domain of Streptococcus pneumoniae PcsB (residues A274-D392) (Streptococcus pneumoniae, UniProt Q8DMY4 274-392)
T1 sequence (looked up): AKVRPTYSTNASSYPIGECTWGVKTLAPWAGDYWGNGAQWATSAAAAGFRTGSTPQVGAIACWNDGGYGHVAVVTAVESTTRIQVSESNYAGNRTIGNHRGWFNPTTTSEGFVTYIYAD
Assay: SPR

Binder: AQKAA (D-isoglutamine at position 2 (iQ); D-alanine at positions 4 and 5) [synthetic pneumococcal stem pentapeptide L-Ala-D-isoGln-L-Lys-D-Ala-D-Ala]
- fold change of KD against AEKADAD: ~15 fold
